# Results: the RNAGym collection of RNA variant scans (doi:10.1073/pnas.2313332121)
# This sample holds only a part of the variants without activity.
# B1: TPR 5TU (parent)
# chain: GGAUCUUCUCGAUCUAACAAAAAAGACAAAUCUGCCACAAAGCUUGAGAGCAUCUUCGGAUGCAGAGGCGGCAGCCUUCGGUGGCGCGAUAGCGCCAACGUUCUCAACUAUGACACGCAAAACGCGUGCUCCGUUGAAUGGAGUUUAUCAUG
# Variants of: B1
# Experiment: polymerase ribozyme fitness, log enrichment relative to wild type (log ratio); higher = more active; in vitro selection for triplet polymerase activity
# In short: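 Fitness is a logarithmic measure of how a genotype enriched relative to the wild type, with replicate averages weighted by inverse variance. The logarithm uses base 2, and enrichment came from Illumina sequencing of input and output libraries. Those libraries were PCR-built, transcribed mutants of each subunit of a heterodimeric triplet polymerase ribozyme, passed through one triplicate in vitro selection round that included frozen incubation at −7 °C, gel excision of extended constructs and streptavidin-bead capture. Genotypes were kept only if they had ≥10 input reads and ≥1 read per output.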
row,Variant,polymerase ribozyme fitness (log ratio)
1,GGAUCUUCUCGAUCUAACAGAACAGACAAAUCUGCCACAAAGCUUGAGAGCAACUUCGGAUGCAGAGGCGGCAGCCUUCGGUGGCGCGAUAAAGUCAACGUUCUCAACUAUGACACGCAAAACGCGUGCUCCGUUGAAUGAAGUUUAUCAUG [A20G A23C U53A G92A C93A C95U G141A],≤ -4.2
2,GGAUCUUCUCGAUCUAACAGAAAAGACAAAUCUGCCACAACGCUUGAGAGCAUGUUCGGAUGCAGAGGCGGCAGCCUUCGGUUGCGGGAUAGCGCCACCGUUCUCAACUAUGACAGGCAAAACGCGUGCUCUGUUGAAUGGAGUUUAUCAUG [A20G A41C C54G G83U C87G A98C C116G C132U],≤ -4.2
3,GGAUCUUCUCGAUCUAACAGAAAAGACAAAUCUGCCACAAAGCUUGAGAGCAUCUUCGGAUGCAGAGGCGGCAGCCUUCGGUGGCGCGAUGGCGCCAACGUUCUCAACUAUGACACGCAAAACGCGUGCUCCGUUGAAUGGAGUUUAUCAUG [A20G A91G],-2.54
4,GGAUCUUCUCGAUCUAACAGAAAGGACAAAUCUGCCACGCAGCUUGAGAGCAUCUUCGGAUGCAGAGGCGGCAGCAUUCGGUGGCGCGAUAGCGCCAACGUUCUCAACUAUGACACGCAAAACGCGUGCUCCGUUUAAUGAAGUUUAUCAUG [A20G A24G A39G A40C C76A G136U G141A],≤ -4.2
5,GGAUCUUCUCGAUCUAACACAAAAGACAAAUCUGCCACAAAGCUUGAGAGCAUCAUCGGAUGCAGAGGCGGCAGCCUUCGGUGGCGCGAUAGCGCCAACGUUCUCAACUAUGACACGCAAAACGCGUGCUCCGUUGAAUGGAGUUUAUCAUG [A20C U55A],-0.798
6,GGAUCUUCUCGAUCUAACAGAAAAGCCAAAUCUGCCACAAAGCUUGAGCGCAUCUUCGGAUGCAGAGCCGGGAGCCUUCGUUGGAGCGAUAGGGCCAACGUUCUCAACUAUGACACGCAAAACGCCUGCUCCGUUGAAUGGAGUUUAUCAUG [A20G A26C A49C G68C C72G G81U C85A C93G G126C],≤ -4.2
7,GGAUCUUCUCGAUCUAACAGAAAAGACAAAUCUGCCACAAAGCUUGAGAGCAUCUUCGGAUGCAGAGGCGGCAGCCUUCGGUGGCGCGAUUGCGCCAACGUUCUCAACUAUGACACGCAAAACUCGUGCUCCGUUGAAUGGAGUUUAUCAUG [A20G A91U G124U],≤ -4.2
8,GGAUCUUCUCGAUCUAACAGAAAGGACAAAUCUGCCACAAAGCUUGAGAGCAACUUCGGAUGCAGAGGCGGCAGCCUUCGGUGGCGCGAUGGCGCCUACGUUCUCAACCAUGACACGCAAAACGCGUGCACCGUUGAAUGACGUUUAUCAUG [A20G A24G U53A A91G A97U U109C U130A G141A A142C],≤ -4.2
9,GGAUCUUCUCGAUCUAACACAAAAGACAAAUCUGCCACAAAGCAUGAGCGCAUCUUCGGAUGCAGAGGCGGCAGCCUUCGGUGGCGCGAUAGCGCGAACGUUAUCAACUAUGACACGCAAAACGCGUGCUCCGUUGAAUGCAGUUUAUCAUG [A20C U44A A49C C96G C103A G141C],≤ -4.2
10,GGAUCUUCUCGAUCUAACAGAAAUGACAAAUCUGCCACAAAGCUUGAGAGCAUCUUCGGAUGCAGAGGCGGCAGCCUUCGGUGGCGUGAUAGCGCCAACGUUCUCAGCUAUGACACGCAAAACGCGUGCUCCGUUGAAUGGAGUUUAUCAUG [A20G A24U C87U A107G],≤ -4.2
11,GGAUCUUCUCGAUCUAACACAAAAGACAAAUCUGCCACAAAGCUUGAGAGCAACUGCGGAUGCAGAGGCGGCAGCCUUCGGUGGAGCGAUAGCGCCAACGUUCUCAACUAUGACACGCCAAACGCGUGCUCCGUUGAAUGGAGUUUAUCAUG [A20C U53A U56G C85A A119C],-4
12,GGAUCUUCUCGAUCUAACACAAAAGACAAAUCUGCCACAAAGCUUGAGAGCAUCUUCGGAUGCAGAGGCGGCAGCCUUCGGUGGCGCGAUAUCGCCAACGUUCUCAACUAUGACACGCAAAACGAGUGCUCCGUUGAAUGGAGUUUAUCAUG [A20C G92U C125A],-0.863
13,GGAUCUUCUCGAUCUAACACAAAAGACAAAUCUGCCACAAAGCUUGAGAGCACCUUCGAAUGCAGAGGCGGCAGCCUUCGGUGGCGCGAUAGCGCCAACGUUCUCAACUAUGACACGCAAAACGCGUGCUCCGUUCAAUGGAGUUUAUCAUG [A20C U53C G59A G136C],-3.81
14,GGAUCUUCUCGAUCUAACAGAAAAGACAAAUCUGCCACAAAGCUUGAGAGCAUCUUCGGAUGCAGAGGCGGCAGCCUUCGGUGGCGCGAUAGCGCCAACGUUCUCAACUAUGACACGCAAAACGCGUGCUCCGUUGAAUGGAGUUUAUCAUG [A20G],-0.287
15,GGAUCUUCUCGAUCUAACAGAAAAGGCAAAUCUGCCACAAAGCUUGAGAGCAUCUUCGGAUGCAAAGGAGGCAGCCUUCGGUGGCGCGAUAGCGCCAACGUUCUAAACUAUGACACGCAAAACGCGUGCUCCGUUGAAUGGAGUUUAUCAUG [A20G A26G G65A C69A C105A],≤ -4.2
16,GGAUCUUCUCGAUCUAACAGAAAUGACAAAUCUGUCACAAACCUUGAGAGCAUCUUCGGAUGCAGAGGCGGCAGCCUUAGGUGGGGCUAUAGCGCCAACGUUCUCAACUAUGACACGCAAAACGCGUGCUCCGUUGAAUGGAGUUUGUCAUA [A20G A24U C35U G42C C79A C85G G88U A147G G152A],≤ -4.2
17,GGAUCUUCUCGAUCUAACACAAAAGACAAAUCUGCCACAAAGCUUGAGAGCAUCUUCGGAUGCAGAGGCGGCAGCCUUCGGUGGCGCGAUAGCGCCAACGUUCUCAACUAUGACACGCAAAACGCGUGCUCCGUUCAAUGGAGUUUAUCAUG [A20C G136C],-4.19
18,GGAUCUUCUCGAUCUAACACAAAAGACAAAUCUGCCACAAAGCCUGAGAGCAUCGUCGGAUGCAGAGGAGGCAGCCUUCGGUGGCGCGAUAGCGCCAACGUUCUCAACUAUGACACGCAAAACGCGUGCUCCGUUGAAUGGAGUUUAUCAUG [A20C U44C U55G C69A],≤ -4.2
19,GGAUCUUCUCGAUCUAACACAAAAGACAAAUCUGCCACAAAGCUUGAGAGCAUCAUCGGAUGCAGAGGCGACAGCCUUCGGUGGCGCGAUAGCGCUAACGUUCUCAACUAUGACACGCAAAACGCGUGCUCCGUUGAAUGGAGUUUAUCAUG [A20C U55A G71A C96U],-3.43
